Laboratory results as given in US20220174981A1, “PROLINE TOLERANT TRIPEPTIDYL PEPTIDASES AND USES THEREOF” (DuPont Nutrition Biosciences APS, priority 2014, published 2022).
Peptide text beside a SMILES is read from it.

T1: T. reesei proline tolerant tripeptidyl peptidase TRI083 (SEQ ID No. 1, SEQ ID No. 2 or SEQ ID No. 29) (Trichoderma reesei, UniProt G0RXE9)
T1 sequence (G0RXE9 198-612): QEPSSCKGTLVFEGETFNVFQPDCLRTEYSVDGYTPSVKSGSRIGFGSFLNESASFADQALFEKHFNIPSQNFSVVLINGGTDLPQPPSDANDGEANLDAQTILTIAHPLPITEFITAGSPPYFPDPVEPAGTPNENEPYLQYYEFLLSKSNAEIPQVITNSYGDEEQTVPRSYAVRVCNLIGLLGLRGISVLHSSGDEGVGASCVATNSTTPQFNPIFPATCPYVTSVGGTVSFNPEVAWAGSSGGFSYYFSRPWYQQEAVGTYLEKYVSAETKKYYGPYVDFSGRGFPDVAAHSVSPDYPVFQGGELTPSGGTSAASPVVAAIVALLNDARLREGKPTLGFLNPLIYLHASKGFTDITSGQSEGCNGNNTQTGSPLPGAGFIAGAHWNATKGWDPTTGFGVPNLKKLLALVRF

B1: TRI083: proline tolerant tripeptidyl peptidase (SEQ ID No. 1, SEQ ID No. 2 or SEQ ID No. 29), expressed in Trichoderma reesei (protein)
chain: T1 sequence (G0RXE9 198-612)

Assays:
Format in all cases: biochemical
[1] = target: T1, T. reesei proline tolerant tripeptidyl peptidase TRI083 (SEQ ID No. 1, SEQ ID No. 2 or SEQ ID No. 29); experiment: Product inhibition of proline tolerant tripeptidyl peptidase TRI083 with H-Ala-Ala-Ala-pNA as substrate; conditions: competitive inhibitor fit; substrate Ala-Ala-Ala-pNA (0-2000 nM); McIlvaine buffer pH 4.0, 50° C.; tripeptide at 3.6 mM, dipeptide at 18 mM
Procedure: For proline tolerant tripeptidyl peptidase the chromogenic peptide H-Ala-Ala-Ala-pNA was used. The assay was conducted as follows, 27.5 μL of appropriately diluted enzyme was added to 200 μl McIlvaine buffer (20 mM, pH 4.0). After incubation at 50° C. for 5 min, 12.5 μL of the chromogenic peptide solution (5 mg/mL dissolved in dimethyl sulfoxide (DMSO); Sigma-Aldrich, Denmark) were added to the reaction mixture. The reaction was terminated by adding 50 μL of 0.5 M trichloroacetic acid (TCA; Sigma-Aldrich, Denmark). After centrifugation (15,000×g, 5 min), 240 μL of the solution were transferred to a microtiter plate (MTP; Kisker-biotech, Germany) and the absorption was measured in an MTP reader (Molecular Devices, Denmark) at 405 nm. One katal of proteolytic activity was defined as the amount of enzyme required to release 1 mol of p-nitroaniline per second. […]
The inhibition experiments were set up as described in Example 14. […] The degree of pre-hydrolysis of H-Ala-Ala-Ala-OH was determined by gas chromatography (Husek, 1991; FEBS-Letters 280, 354-356). About 0.18 mg/mL alanine was measured, which corresponds to about 54% hydrolyses of the initially applied H-Ala-Ala-Ala-OH.
Subsequently, TRI083 was analyzed for product inhibition without inhibitor, with 1 mg/mL H-Ala-Ala-Ala-OH as well with the PepN pre-hydrolyzed H-Ala-Ala-Ala-OH (1 mg/mL).

H-Ala-Ala-Ala-pNA = experiment: Exopeptidase Broad-Specificity Assay (EBSA) with H-Ala-Ala-Ala-pNA; pH and temperature profile
Procedure: 10 μL of the chromogenic peptide solution (10 mM H-Ala-Ala-Ala-pNA dissolved in dimethyl sulfoxide (DMSO); MW=387.82; Bachem, Switzerland) were added to 130 μl Na-acetate (20 mM, adjusted to pH 4.0 with acetic acid) in a microtiter plate and heated for 5 minutes at 40° C. 10 μL of appropriately diluted enzyme was added and the absorption was measured in a MTP reader (Versa max, Molecular Devices, Denmark) at 405 nm. One katal of proteolytic activity was defined as the amount of enzyme required to release 1 mole of p-nitroaniline per second.
The chromogenic peptide H-Ala-Ala-Ala-pNA (MW=387.82; Bachem, Switzerland) was used to determine the activity of proline tolerant tripeptidyl peptidase in the samples produced as described above. The assay was conducted as follows, 10 μL of the chromogenic peptide solution (10 mM dissolved in dimethyl sulfoxide; DMSO) were added to 130 μl Na-acetate (20 mM, adjusted to pH 4.0 with acetic acid) in a microtiter plate and heated for 5 minutes at 40° C. 10 μL of appropriately diluted enzyme was added and the absorption was measured in an MTP reader (Versa max, Molecular Devices, Denmark) at 405 nm. One katal of proteolytic activity was defined as the amount of enzyme required to release 1 mole of p-nitroaniline per second.
The proline tolerant tripeptidyl peptidase assay described with H-Ala-Ala-Ala-pNA substrate above with modification of using the buffers 20 mM Na-glycine (pH 2.0, 2.5, 3.0, 3.5 and 4.0) or 20 mM Na-acetate buffer (pH 4.0, 4.5 and 5.5) was used to determine the pH profile of proline tolerant tripeptidyl peptidase TRI083 (FIG. 2) and TRI045 (FIG. 24)..
The proline tolerant tripeptidyl peptidase assay described above was used at temperatures 25, 50, 55, 60, 65, 70, 75, 80 and 85° C.
For proline tolerant tripeptidyl peptidase the chromogenic peptide H-Ala-Ala-Ala-pNA was used. The assay was conducted as follows, 27.5 μL of appropriately diluted enzyme was added to 200 μl McIlvaine buffer (20 mM, pH 4.0). After incubation at 50° C. for 5 min, 12.5 μL of the chromogenic peptide solution (5 mg/mL dissolved in dimethyl sulfoxide (DMSO); Sigma-Aldrich, Denmark) were added to the reaction mixture. The reaction was terminated by adding 50 μL of 0.5 M trichloroacetic acid (TCA; Sigma-Aldrich, Denmark). After centrifugation (15,000×g, 5 min), 240 μL of the solution were transferred to a microtiter plate (MTP; Kisker-biotech, Germany) and the absorption was measured in an MTP reader (Molecular Devices, Denmark) at 405 nm. One katal of proteolytic activity was defined as the amount of enzyme required to release 1 mol of p-nitroaniline per second.

[2] = tested on: whey protein (WPI, Lacprodan-9224); experiment: Hydrolysis of 20% whey protein (WPI) with Alphalase FP2 and TRI083, OPA degree of hydrolysis; conditions: FP2 0.0%
Procedure: For whey protein hydrolysis, Lacprodan-9224 (Arla Food Ingredients, Denmark) was employed. A 20% (w/w) WPI suspension was prepared in H2Od and adjusted to pH 4.0 with acetic acid (Sigma-Aldrich, Denmark). To prevent microbial growth, 0.0285% (w/w) NaN3 was added. A volume of 200 μl of the WPI suspension was transferred into each of the 96 wells of a microtiter plate (MTP; VWR, Denmark). Subsequently, 5 μl of each consecutively diluted peptidase, Alphalase® FP2 and proline tolerant tripeptidyl peptidase (3PP=TRI083; 0-8750 nkat H-Ala-Ala-Ala-pNA/mL activity in stock solution added), were added to each well, resulting in dosages as shown in Table 1. The MTP was sealed and placed in an EMS incubator/shaker (Thermo Scientific, Denmark) at 40° C. After 24 h of incubation and shaking at 400 rpm, the hydrolyses were stopped by addition of 20 μl of 2 M trichloroacetic acid (TCA; Sigma-Aldrich, Denmark). As a reference, a plain 20% WPI (w/w) suspension was used which was treated in the same manner as the WPI hydrolyses. Unhydrolysed, precipitated WPI was removed by filtration (0.22 μm). On the filtered WPI hydrolysate o-phthaldehyde (OPA) derivatization was conducted according to Nielsen et al. (2001) with minor modifications. A sample volume of 25 μl was transferred to a well and 175 μl of OPA-reagent, dissolved in phosphate buffer pH 11, was added subsequently. The measured absorptions at 340 nm in an MTP reader (Molecular Devices, Denmark) were transformed into the relative degree of hydrolysis (DH) in per cent.
A 20% (w/w) WPI suspension hydrolysed in 6 M HCl (Sigma-Aldrich, Denmark) at 100° C. for 24 h served as reference (100% DH).

sodium caseinate = experiment: 5% sodium caseinate hydrolysis with endopeptidase, TRI083 and PepN, serine equivalents; conditions: 17,500 nkat/mL TRI083

| Molecule | Ki [1] | activity at 70° C. and higher temperatures (H-Ala-Ala-Ala-pNA) | Optimum pH (H-Ala-Ala-Ala-pNA; H-Ala-Ala-Ala-pNA, 20 mM Na-glycine pH 2.0-4.0 or Na-acetate pH 4.0-5.5) | optimum temperature (H-Ala-Ala-Ala-pNA; tested at 25-85° C.) | Degree of hydrolysis of 20% (w/w) WPI ([2]; TRI083 2,188 nkat/mL stock solution) | Degree of hydrolysis of 20% (w/w) WPI ([2]; TRI083 4,375 nkat/mL stock solution) | Degree of hydrolysis of 20% (w/w) WPI ([2]; TRI083 8,375 nkat/mL stock solution) | increase of SE (sodium caseinate) |
| --- | --- | --- | --- | --- | --- | --- | --- | --- |
| C[C@H](N)C(=O)N[C@@H](C)C(=O)N[C@@H](C)C(=O)O [H-Ala-Ala-Ala-OH] | 0.34 mM |  |  |  |  |  |  |  |
| C[C@H](N)C(=O)N[C@@H](C)C(=O)O [H-Ala-Ala-OH] (H-Ala-Ala-OH) | 40 mM |  |  |  |  |  |  |  |
| B1 |  | no activity | 4.0 | 50 °C | 0.5% | −0.9% | 1.4% | 18 mM |
